Tissue uptake and tissue to tissue ratio data for three molecules are collected here from article doi:10.1101/2025.09.11.675134, “Biodistribution-Driven Discovery Identifies a Glycosidase-Cleavable Linker to Reprogram Radiotheranostics” (bioRxiv, 2025).

The nature of the series: Ex vivo biodistribution of 225Ac-labeled variants in AR42J tumor-bearing mice. The following applies: athymic nu/nu, mouse, total radioactivity. As to the method: Prior to conducting targeted alpha-particle therapy studies using three ^225Ac-labeled variants (Fig. S17) in AR42J xenograft-bearing mice, we first assessed their in vivo pharmacokinetics through ex vivo biodistribution studies at 24 h post-injection (Fig. 5A; Tables S4). […]
For studies involving three variants (DOTA -TATE, DOTA-MVK(ε)-TATE, and DOTA-β-Gal-TATE), AR42J cells (5 × 10^6 cells per mouse) were subcutaneously inoculated into the right shoulder of the mice. Tumors were allowed to grow for 3 weeks, reaching a volume of 100 –200 mm³ before being used in subsequent experiments. […]
All samples […]
were weighed and counted on a gamma counter (2480 Wizard 3, Perkin Elmer Inc., Waltham, MA, USA). Results are presented as percentage of injected activity per gram (%IA/g) and mean values ± standard deviations. […]
Prior to conducting alpha particle therapy, biodistribution studies with 225Ac-labeled DOTA - TATE variants (117 – 163 kBq, 1 μg) were performed at 24 hours and 4 days post -injection in athymic nu/nu mice bearing AR42J tumors (n = 4 – 5). Mice were euthanized by CO 2 asphyxiation, and 10 tissues, including tumors, were collected. All samples were weighed and counted on a gamma counter after equilibration for 12 hours. Results are presented as %IA/g and mean values ± standard deviations.

Where [1] appears, read: iv, 1 ug, 225Ac-labeled, AR42J tumor-bearing mice, 24 h post-injection, ex vivo, mean (± SD), n = 4–5, read-out: Kidney uptake.
Setting [2] is: iv, 1 ug, 225Ac-labeled, AR42J tumor-bearing mice, 24 h post-injection, ex vivo, mean (± SD), n = 4–5, read-out: Liver uptake.
[3] abbreviates: iv, 1 ug, 225Ac-labeled, AR42J tumor-bearing mice, 24 h post-injection, ex vivo, mean (± SD), n = 4–5, read-out: Tumor uptake.
[4] abbreviates: iv, 1 ug, 225Ac-labeled, AR42J tumor-bearing mice, 24 h post-injection, ex vivo, mean, n = 4–5, read-out: Femur uptake.
Setting [5] is: iv, 1 ug, 225Ac-labeled, AR42J tumor-bearing mice, 24 h post-injection, ex vivo, mean, n = 4–5, read-out: Intestine uptake.
Setting [6] is: iv, 1 ug, 225Ac-labeled, AR42J tumor-bearing mice, 24 h post-injection, ex vivo, mean, n = 4–5, read-out: Spleen uptake.
Setting [7] is: iv, 1 ug, 225Ac-labeled, AR42J tumor-bearing mice, 24 h post-injection, i.v. 1 μg (117–163 kBq), ex vivo gamma counting, mean, n = 4–5, read-out: Blood uptake.
[8] abbreviates: iv, 1 ug, 225Ac-labeled, AR42J tumor-bearing mice, 4 days post-injection, ex vivo, mean, n = 4–5, read-out: Blood uptake.
Setting [9] is: iv, 1 ug, 225Ac-labeled, AR42J tumor-bearing mice, 4 days post-injection, ex vivo, mean, n = 4–5, read-out: Femur uptake.
Setting [10] is: iv, 1 ug, 225Ac-labeled, AR42J tumor-bearing mice, 4 days post-injection, ex vivo, mean, n = 4–5, read-out: Intestine uptake.
The mark [11] stands for this setting: iv, 1 ug, 225Ac-labeled, AR42J tumor-bearing mice, 4 days post-injection, ex vivo, mean, n = 4–5, read-out: Kidney uptake.
The mark [12] stands for this setting: iv, 1 ug, 225Ac-labeled, AR42J tumor-bearing mice, 4 days post-injection, ex vivo, mean, n = 4–5, read-out: Liver uptake.
Setting [13] is: iv, 1 ug, 225Ac-labeled, AR42J tumor-bearing mice, 4 days post-injection, ex vivo, mean, n = 4–5, read-out: Muscle uptake.
The mark [14] stands for this setting: iv, 1 ug, 225Ac-labeled, AR42J tumor-bearing mice, 4 days post-injection, ex vivo, mean, n = 4–5, read-out: Spleen uptake.
Setting [15] is: 225Ac-labeled, AR42J tumor-bearing mice, 24 h post-injection, ex vivo, mean, n = 4–5, read-out: Heart uptake.
Setting [16] is: 225Ac-labeled, AR42J tumor-bearing mice, 24 h post-injection, ex vivo, mean, n = 4–5, read-out: Lung uptake.
[17] abbreviates: 225Ac-labeled, AR42J tumor-bearing mice, 24 h post-injection, ex vivo, mean, n = 4–5, read-out: Muscle uptake.
Where [18] appears, read: 225Ac-labeled, AR42J tumor-bearing mice, 4 days post-injection, ex vivo, mean, n = 4–5, read-out: Heart uptake.
[19] abbreviates: 225Ac-labeled, AR42J tumor-bearing mice, 4 days post-injection, ex vivo, mean, n = 4–5, read-out: Lung uptake.

Where two headings read alike, the source gives them in different places.

Regarding `C[C@@H](O)[C@H](NC(=O)[C@@H]1CSSC[C@H](NC(=O)[C@@H](Cc2ccccc2)NC(=O)CCCC(=O)Nc2cc(COC(=O)N(C)CCNC(=O)CN3CCN(CC(=O)O)CCN(CC(=O)O)CCN(CC(=O)O)CC3)ccc2O[C@@H]2O[C@H](CO)[C@H](O)[C@H](O)[C@H]2O)C(=O)N[C@@H](Cc2ccc(O)cc2)C(=O)N[C@H](Cc2c[nH]c3ccccc23)C(=O)N[C@@H](CCCCN)C(=O)N[C@@H]([C@@H](C)O)C(=O)N1)C(=O)O` [^225Ac-DOTA-β-Gal-TATE, metal not drawn], the tissue uptake at 24 h was 0.89 ± 0.08 %ID/g under setting [1]; 0.89 ± 0.49 %ID/g under setting [2]; 8.22 ± 1.84 %ID/g under setting [3]; 0.48 %ID/g under setting [4]; 0.17 %ID/g under setting [5]; 0.47 %ID/g under setting [6]. The tissue uptake at 24 h runs as follows: under setting [7], 0.04 %ID/g; under setting [15], 0.1 %ID/g; under setting [16], 0.1 %ID/g; under setting [17], 0.1 %ID/g. Moreover, the tissue uptake at 96 h reads like this: under setting [8], 0.03 %ID/g; under setting [9], 0.42 %ID/g; under setting [10], 0.09 %ID/g; under setting [11], 0.28 %ID/g; under setting [12], 0.5 %ID/g; under setting [13], 0.22 %ID/g. In addition, the tissue uptake at 96 h reads like this: under setting [14], 0.22 %ID/g; (225Ac-labeled, AR42J tumor-bearing mice, 4 days post-injection, ex vivo, mean (± SD), n = 4–5, read-out: Tumor uptake) 2.74 %ID/g; under setting [18], 0.13 %ID/g; under setting [19], 0.11 %ID/g. Besides, the tissue to tissue ratio at 24 h (225Ac-labeled, AR42J xenografts, 24 h post-injection, ex vivo, mean ± SD, n = 4, read-out: Tumor-to-kidney (T/K) ratio) turned out to be 9.12 ± 1.31.
In the case of `CSCC[C@H](NC(=O)CN1CCN(CC(=O)O)CCN(CC(=O)O)CCN(CC(=O)O)CC1)C(=O)N[C@H](C(=O)N[C@@H](CCCCNC(=O)CCCC(=O)N[C@H](Cc1ccccc1)C(=O)N[C@H]1CSSC[C@@H](C(=O)N[C@H](C(=O)O)[C@@H](C)O)NC(=O)[C@H]([C@@H](C)O)NC(=O)[C@H](CCCCN)NC(=O)[C@@H](Cc2c[nH]c3ccccc23)NC(=O)[C@H](Cc2ccc(O)cc2)NC1=O)C(=O)O)C(C)C` [^225Ac-DOTA-MVK(ε)-TATE, metal not drawn], the tissue to tissue ratio at 24 h was 3.05 ± 0.37, the tissue to tissue ratio at 96 h turned out to be 5.72 ± 0.91 and the tissue uptake at 96 h was found to be 2.41 ± 0.22 %ID/g. In addition, the tissue uptake at 24 h under setting [1] was found to be 1.27 ± 0.25 %ID/g. Besides, the tissue uptake at 24 h under setting [2] came to 0.61 ± 0.06 %ID/g. The tissue uptake at 24 h under setting [3] was 3.83 ± 0.51 %ID/g. Moreover, under setting [4], the tissue uptake at 24 h is 0.33 %ID/g. Further, the tissue uptake at 24 h under setting [5] is 0.11 %ID/g. Besides, under setting [6], the tissue uptake at 24 h came to 0.32 %ID/g. Moreover, under setting [7], the tissue uptake at 24 h was determined as 0.03 %ID/g. For the same molecule, the tissue uptake at 96 h under setting [8] came out at 0.03 %ID/g. In addition, the tissue uptake at 96 h under setting [9] worked out at 0.32 %ID/g. Further, under setting [10], the tissue uptake at 96 h was 0.07 %ID/g. Further, the tissue uptake at 96 h under setting [11] worked out at 0.43 %ID/g. In addition, the tissue uptake at 96 h under setting [12] stood at 0.42 %ID/g. In addition, the tissue uptake at 96 h under setting [13] was found to be 0.15 %ID/g. Moreover, the tissue uptake at 96 h under setting [14] was 0.19 %ID/g. Also, the tissue uptake at 24 h under setting [15] was 0.08 %ID/g. Also, the tissue uptake at 24 h under setting [16] is 0.14 %ID/g. The tissue uptake at 24 h under setting [17] worked out at 0.09 %ID/g. The tissue uptake at 96 h under setting [18] turned out to be 0.12 %ID/g. Further, under setting [19], the tissue uptake at 96 h came out at 0.11 %ID/g.
For the molecule `C[C@@H](O)[C@H](NC(=O)[C@@H]1CSSC[C@H](NC(=O)[C@@H](Cc2ccccc2)NC(=O)CN2CCN(CC(=O)O)CCN(CC(=O)O)CCN(CC(=O)O)CC2)C(=O)N[C@@H](Cc2ccc(O)cc2)C(=O)N[C@H](Cc2c[nH]c3ccccc23)C(=O)N[C@@H](CCCCN)C(=O)N[C@@H]([C@@H](C)O)C(=O)N1)C(=O)O` [^225Ac-DOTA-TATE, metal not drawn, reference compound], the tissue uptake at 96 h was found to be 1.14 ± 0.37 %ID/g. The tissue uptake at 24 h under setting [1] came to 4.19 ± 0.28 %ID/g. For the same molecule, the tissue uptake at 24 h under setting [2] was 0.29 ± 0.02 %ID/g. In addition, the tissue uptake at 24 h under setting [3] was found to be 3.4 ± 0.34 %ID/g. For the same molecule, under setting [4], the tissue uptake at 24 h amounted to 0.2 %ID/g. Further, the tissue uptake at 24 h under setting [5] worked out at 0.09 %ID/g. Moreover, the tissue uptake at 24 h under setting [6] amounted to 0.16 %ID/g. Also, the tissue uptake at 24 h under setting [7] came to 0.03 %ID/g. Further, the tissue uptake at 96 h under setting [8] was 0.04 %ID/g. For the same molecule, the tissue uptake at 96 h under setting [9] amounted to 0.41 %ID/g. Besides, the tissue uptake at 96 h under setting [10] came to 0.1 %ID/g. For the same molecule, the tissue uptake at 96 h under setting [11] was 1.02 %ID/g. The tissue uptake at 96 h under setting [12] stood at 0.65 %ID/g. In addition, under setting [13], the tissue uptake at 96 h came to 0.16 %ID/g. The tissue uptake at 96 h under setting [14] was 0.27 %ID/g. Moreover, the tissue uptake at 24 h under setting [15] was determined as 0.06 %ID/g. In addition, the tissue uptake at 24 h under setting [16] was 0.14 %ID/g. Moreover, under setting [17], the tissue uptake at 24 h came to 0.1 %ID/g. The tissue uptake at 96 h under setting [18] was found to be 0.14 %ID/g. The tissue uptake at 96 h under setting [19] worked out at 0.16 %ID/g.
